# Measurements from patent US5217864, “Replication initiator protein complex and methods of use thereof” (The Rockefeller University).
# B1: OTF1 site at 5' end of 280 bp fragment (dsDNA)
# DNA 1: ATTTTCAT
# DNA 2: ATGAAAAT
# Molecular target: OTF1/NFIII (UniProt P14859 P14859:1-743)
# Test: EMSA; data not shown
# Sequence of OTF1/NFIII (P14859 whole entry, one chain of several): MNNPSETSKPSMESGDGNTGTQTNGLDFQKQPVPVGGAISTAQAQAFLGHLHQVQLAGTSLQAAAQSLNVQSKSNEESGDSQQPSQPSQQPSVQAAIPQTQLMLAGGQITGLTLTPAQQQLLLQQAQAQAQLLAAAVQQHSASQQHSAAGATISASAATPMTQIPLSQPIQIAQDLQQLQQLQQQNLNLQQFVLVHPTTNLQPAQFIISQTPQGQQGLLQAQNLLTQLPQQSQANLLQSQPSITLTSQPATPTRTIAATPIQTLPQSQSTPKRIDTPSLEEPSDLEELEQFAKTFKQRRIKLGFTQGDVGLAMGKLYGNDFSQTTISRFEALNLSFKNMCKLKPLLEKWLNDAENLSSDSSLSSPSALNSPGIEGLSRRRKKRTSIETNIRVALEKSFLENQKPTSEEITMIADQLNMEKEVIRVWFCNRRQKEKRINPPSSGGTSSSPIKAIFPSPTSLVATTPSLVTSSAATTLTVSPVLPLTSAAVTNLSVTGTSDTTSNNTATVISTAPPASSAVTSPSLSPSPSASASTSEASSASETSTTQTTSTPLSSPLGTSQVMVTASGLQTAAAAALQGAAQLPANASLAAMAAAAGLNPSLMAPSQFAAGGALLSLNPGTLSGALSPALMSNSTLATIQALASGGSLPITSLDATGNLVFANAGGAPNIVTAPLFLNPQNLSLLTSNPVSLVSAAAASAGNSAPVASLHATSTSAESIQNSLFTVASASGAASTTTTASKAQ
binder,measurement,value
B1,binding result,binds
